# Numbering of substitutions follows the chain as printed. In names and notes the source's numbering stands.
# B1: DART-1 (bispecific antibody)
# chain 1: QLVLTQSPSASASLGSSVKLTCTLSSGHKTDTIDWYQQQPGKAPRYLMKLEGSGSYNKGSGVPDRFGSGSSSGADRYLTISSLQSEDEADYYCGTDYPGNYLFGGGTQLTVLGGGGSGGGGEVQLVESGGGLVQPGGSLRLSCAASGFTFSTYAMNWVRQAPGKGLEWVGRIRSKYNNYATYYADSVKGRFTISRDDSKNSLYLQMNSLKTEDTAVYYCVRHGNFGNSYVSWFAYWGQGTLVTVSSGGCGGGKVAALKEKVAALKEKVAALKEKVAALKE
# chain 2: QAVVTQEPSLTVSPGGTVTLTCRSSTGAVTTSNYANWVQQKPGQAPRGLIGGTNKRAPWTPARFSGSLLGGKAALTITGAQAEDEADYYCALWYSNLWVFGGGTKLTVLGGGGSGGGGQEQLVESGGGLVQPGGSLRLSCAASGFTFSDYYMSWVRQAPGKGLEWVATIYPSSGKTYYADSVKGRFTISSDNAKNSLYLQMNSLRAEDTAVYYCARDSYADDAALFDIWGQGTTVTVSSGGCGGGEVAALEKEVAALEKEVAALEKEVAALEK
# notes: VL: parental; VH: parental; also called ROR1×CD3 bispecific two chain diabody with parental anti-ROR1-VL and anti-ROR1-VH
# B2: DART-32 (bispecific antibody)
# chain 1: QLVLTQSPSASASLGSSVKLTCTLSSGHKTDTIDWYQQQPGKAPRYLMKLEGSGSYNKGSGVPDRFSGSSSGADWYLTISSLQSEDEADYYCGTDYPGNYLFGGGTQLTVLGGGGSGGGGEVQLVESGGGLVQPGGSLRLSCAASGFTFSTYAMNWVRQAPGKGLEWVGRIRSKYNNYATYYADSVKGRFTISRDDSKNSLYLQMNSLKTEDTAVYYCVRHGNFGNSYVSWFAYWGQGTLVTVSSGGCGGGKVAALKEKVAALKEKVAALKEKVAALKE
# chain 2: B1 chain 2 with F186L, N195D, A215T
# notes: ROR1×CD3 two chain diabody
# B3: DART-A (bispecific antibody, IgG1)
# chain 1: QLVLTQSPSASASLGSSVKLTCTLSSGHKTDTIDWYQQQPGKAPRYLMKLEGSGSYNKGSGVPDRFGSGSSSGADRYLTISSLQSEDEADYYCGTDYPGNYLFGGGTQLTVLGGGGSGGGGEVQLVESGGGLVQPGGSLRLSCAASGFTFSTYAMNWVRQAPGKGLEWVGRIRSKYNNYATYYADSVKGRFTISRDDSKNSLYLQMNSLKTEDTAVYYCVRHGNFGNSYVSWFAYWGQGTLVTVSSASTKGEVAACEKEVAALEKEVAALEKEVAALEKGGGDKTHTCPPCPAPEAAGGPSVFLFPPKPKDTLMISRTPEVTCVVVDVSHEDPEVKFNWYVDGVEVHNAKTKPREEQYNSTYRVVSVLTVLHQDWLNGKEYKCKVSNKALPAPIEKTISKAKGQPREPQVYTLPPSREEMTKNQVSLWCLVKGFYPSDIAVEWESNGQPENNYKTTPPVLDSDGSFFLYSKLTVDKSRWQQGNVFSCSVMHEALHNHYTQKSLSLSPGK
# chain 2: QAVVTQEPSLTVSPGGTVTLTCRSSTGAVTTSNYANWVQQKPGQAPRGLIGGTNKRAPWTPARFSGSLLGGKAALTITGAQAEDEADYYCALWYSNLWVFGGGTKLTVLGGGGSGGGGQEQLVESGGGLVQPGGSLRLSCAASGFTFSDYYMSWVRQAPGKGLEWVATIYPSSGKTYYADSVKGRFTISSDNAKNSLYLQMNSLRAEDTAVYYCARDSYADDAALFDIWGQGTTVTVSSASTKGKVAACKEKVAALKEKVAALKEKVAALKE
# chain 3: not shown
# notes: Three chain Fc Region-containing diabody (knob/hole IgG1 CH2-CH3 with L234A/L235A); C-terminal lysine of the Fc chains may be removed post-translationally; also called ROR1×CD3 bispecific three chain diabody with parental anti-ROR1-VL and anti-ROR1-VH
# Tests used:
# [1] = target: T1, His-tagged soluble human ROR1 (shROR1-His) (human, UniProt Q01973 30-406); experiment: sandwich ELISA: plate coated with shROR1-His, serial dilutions of diabody, bound diabody detected with biotinylated CD3 and streptavidin-HRP; abs @450nm
# T1 construct: also called ROR1 protein; immobilized ROR1; not shown: His-Tag
# Protocol: (§1) The ability of the bispecific ROR1×CD3 two and three chain diabodies DART-1 and DART-A to bind both ROR1 and CD3 was examined by a sandwich ELISA. Briefly, microtiter plates were coated with shROR1-His, the plates were washed and incubated with three-fold serial dilutions of DART-1 or DART-A. The amount of diabody binding to the immobilized ROR1 was assessed using a biotinylated CD3 detected with Streptavidin-HRP. All samples were analyzed on a plate reader and binding curves generated. […] The cells were washed twice incubated with biotin-conjugated mouse anti-EK-coil antibody that recognizes the E-coil/K-coil (EK) heterodimerization region (100 μL of 1 μg/mL mixed with 1:500 diluted streptavidin-phycoerythrin) for 45 min. The cells were then washed and resuspended with FACS buffer, and analyzed with a BD FCS Canto II flow cytometer using FlowJo v10 software.
# [2] = target: T1, His-tagged soluble human ROR1 …; experiment: SPR (Biacore), diabody captured via anti-E/K-coil, shROR1-His as analyte
# Protocol: The binding kinetics of DART-1 to DART-6, DART-10 to DART-17, DART-20 to DART-33 was investigated using Biacore analysis in which ROR1 protein was passed over immobilized diabodies. Briefly, each diabody construct was captured on immobilized anti-E/K-coil surface and was incubated with shROR1-His at 25 and 100 nM, and the kinetics of binding were determined via Biacore analysis.
# [3] = target: T2, human ROR1 expressed on the surface of cancer cells (human, UniProt Q01973 30-937); experiment: cell-based or functional assay
# [4] = target: T1, His-tagged soluble human ROR1 …; experiment: SPR (Biacore)
# [5] = target: T1, His-tagged soluble human ROR1 …; experiment: sandwich ELISA: plate coated with shROR1-His, serial dilutions of diabody, bound diabody detected with biotinylated CD3 and streptavidin-HRP; y axis 'Mean Value'
# Protocol: as §1
# [6] = target: T2, human ROR1 expressed on the surface of …; experiment: cell-based or functional assay; remark: listed apart in the source
# [7] = target: T1, His-tagged soluble human ROR1 …; experiment: SPR (Biacore), shROR1-His captured on anti-PentaHis surface, diabody 6.25-100 nM as analyte
# Protocol: The binding affinity of DART-1, DART-A, DART-B, and DART-C was investigated using Biacore analysis in which each diabody construct was passed over immobilized ROR1. Briefly, shROR1-His was captured on immobilized anti-PentaHis surface and was incubated with DART-1, DART-A, DART-B or DART-C at 6.25-100 nM, and the kinetics of binding was determined via Biacore analysis.
# T2 sequence (Q01973 30-937): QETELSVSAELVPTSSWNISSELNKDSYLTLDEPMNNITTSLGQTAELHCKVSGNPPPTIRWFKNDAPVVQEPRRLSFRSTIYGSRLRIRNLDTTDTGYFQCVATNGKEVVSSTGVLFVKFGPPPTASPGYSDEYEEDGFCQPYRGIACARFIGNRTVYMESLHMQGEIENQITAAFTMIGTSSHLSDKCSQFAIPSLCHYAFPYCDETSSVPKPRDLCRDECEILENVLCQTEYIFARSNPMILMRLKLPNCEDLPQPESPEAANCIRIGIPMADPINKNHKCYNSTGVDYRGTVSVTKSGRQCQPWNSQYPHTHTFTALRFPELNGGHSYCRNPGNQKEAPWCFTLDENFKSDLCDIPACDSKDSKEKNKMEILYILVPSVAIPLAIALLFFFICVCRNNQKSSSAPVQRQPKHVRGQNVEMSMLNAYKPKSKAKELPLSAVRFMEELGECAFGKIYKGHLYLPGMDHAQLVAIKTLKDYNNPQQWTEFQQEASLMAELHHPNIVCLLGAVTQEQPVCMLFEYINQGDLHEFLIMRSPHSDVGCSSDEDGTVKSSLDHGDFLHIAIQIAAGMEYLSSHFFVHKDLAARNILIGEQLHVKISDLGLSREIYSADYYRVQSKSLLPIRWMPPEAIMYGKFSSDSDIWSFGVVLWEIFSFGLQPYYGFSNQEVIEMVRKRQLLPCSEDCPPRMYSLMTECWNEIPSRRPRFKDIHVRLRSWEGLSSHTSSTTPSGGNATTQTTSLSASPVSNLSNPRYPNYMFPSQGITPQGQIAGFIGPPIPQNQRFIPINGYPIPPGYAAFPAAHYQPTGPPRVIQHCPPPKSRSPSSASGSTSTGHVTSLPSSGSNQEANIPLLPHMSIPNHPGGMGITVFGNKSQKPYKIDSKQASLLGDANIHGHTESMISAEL
# T1 sequence (Q01973 30-406): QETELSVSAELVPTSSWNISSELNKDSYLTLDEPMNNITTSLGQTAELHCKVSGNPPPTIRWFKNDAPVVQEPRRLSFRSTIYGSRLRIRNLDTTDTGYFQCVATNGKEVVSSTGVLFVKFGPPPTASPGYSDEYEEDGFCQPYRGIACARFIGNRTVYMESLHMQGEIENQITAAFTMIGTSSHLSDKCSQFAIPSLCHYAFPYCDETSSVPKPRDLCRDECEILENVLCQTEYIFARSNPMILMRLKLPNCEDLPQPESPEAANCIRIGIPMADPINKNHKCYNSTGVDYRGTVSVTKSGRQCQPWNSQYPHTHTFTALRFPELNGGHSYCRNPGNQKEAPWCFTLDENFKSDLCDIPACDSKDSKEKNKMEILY
Binder,EC50 (read off the curve) [1] [nM],Kd [2] [nM],"MR(%) (maximum response), redirected cell killing of HBL-2 cells (LDH release) [3]","MR(%) (maximum response), redirected cell killing of JIMT-1 cells (LDH release) [3]","MR(%) (maximum response), redirected cell killing of Jeko-1 cells (LDH release) [3]",fold enhancement of binding relative to DART-1 [4] [fold],EC50 (read off the curve) [5] [nM],"EC50 nM, redirected cell killing of Calu-3 cells by pan T-cells (LDH release) [6] [nM]","EC50 nM, redirected cell killing of JIMT-1 cells by pan T-cells (LDH release) [6] [nM]","EC50 nM, redirected cell killing of NCI-H1975 cells by pan T-cells (LDH release) [6] [nM]",Kd [7] [nM]
B1,~2,4,28.5,42.4,37.4,,,,,,
B2,,1.1,,,,> 2,,,,,
B3,~2,,,,,,~1,0.196,0.161,0.266,0.69

# — patent US20170233472A1 (MacroGenics, published 2017)
